B1: TPR 5TU (parent)
chain: GGAUCUUCUCGAUCUAACAAAAAAGACAAAUCUGCCACAAAGCUUGAGAGCAUCUUCGGAUGCAGAGGCGGCAGCCUUCGGUGGCGCGAUAGCGCCAACGUUCUCAACUAUGACACGCAAAACGCGUGCUCCGUUGAAUGGAGUUUAUCAUG

Here are results for 83 variants from the RNAGym collection of RNA variant scans (doi:10.1073/pnas.2313332121).

This sample holds only a part of the variants without activity.

This data set covers variants of B1. In words: polymerase ribozyme fitness, log enrichment relative to wild type (log ratio); higher = more active; in vitro selection for triplet polymerase activity. An outline of the steps:
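A heterodimeric triplet polymerase ribozyme had each of its subunits mutagenized by PCR into a library, which was transcribed. One round of in vitro selection, done in triplicate, annealed each library with a biotinylated primer, its partner subunit and triplets, then incubated it frozen at −7 °C before gel excision of extended constructs, streptavidin-bead capture and RT-PCR. Fitness is the logarithm of genotype enrichment relative to wild-type enrichment, based on Illumina sequencing of inputs and outputs and inverse-variance-weighted replicate averages. A base-2 logarithm is used, and genotypes were kept only with ≥10 input reads and ≥1 read per output.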
With G124A, the “polymerase ribozyme fitness (log ratio)” value is -0.246.

Take A40G C118U: the “polymerase ribozyme fitness (log ratio)” value is -2.18.

Consider G86A U139G, for which the “polymerase ribozyme fitness (log ratio)” value was -1.36.

As for G86U A115G, the “polymerase ribozyme fitness (log ratio)” value is -2.39.

In the case of G71C U102G G133C G141C, the “polymerase ribozyme fitness (log ratio)” value was not above -4.2.

In the case of U45A A106G, the “polymerase ribozyme fitness (log ratio)” value was -1.7.

Take C76A A110U U139C G143U: the “polymerase ribozyme fitness (log ratio)” value was not above -4.2.

For the variant G58U A60G A137C, the “polymerase ribozyme fitness (log ratio)” value was not above -4.2.

A98U A150C: the “polymerase ribozyme fitness (log ratio)” value was -2.82.

As for U13A A20U C35A G50A G83C C118G A119U C132U, the “polymerase ribozyme fitness (log ratio)” value was not above -4.2.

With C18U G81A C87U A97U, the “polymerase ribozyme fitness (log ratio)” value was -1.14.

Take C93G C108G C116G G133C: the “polymerase ribozyme fitness (log ratio)” value was -3.85.

G59C A60U G68A C75A C108A: the “polymerase ribozyme fitness (log ratio)” value was -4.15.

Turning to G88U C105U, the “polymerase ribozyme fitness (log ratio)” value was -3.83.

In the case of A21U A73G C129G, the “polymerase ribozyme fitness (log ratio)” value was -3.49.

As to C18U A20G C87G U102G, the “polymerase ribozyme fitness (log ratio)” value was not above -4.2.

Turning to A3C U6G C57U G74C C149U, the “polymerase ribozyme fitness (log ratio)” value was not above -4.2.

In the case of C69G C87A, the “polymerase ribozyme fitness (log ratio)” value was not above -4.2.

G50U A60U C87U G94A U146A: the “polymerase ribozyme fitness (log ratio)” value was not above -4.2.

A60U C85G G92C U102G: the “polymerase ribozyme fitness (log ratio)” value is not above -4.2.

On to U53A C85U A137G A142C, for which the “polymerase ribozyme fitness (log ratio)” value is -3.93.

On to A3U C18U G50A G68A C76A G92C C93U, for which the “polymerase ribozyme fitness (log ratio)” value is not above -4.2.

As to G68A U130C, the “polymerase ribozyme fitness (log ratio)” value was -3.95.

As for U55A C105A, the “polymerase ribozyme fitness (log ratio)” value is -0.692.

For the variant A41G G88U, the “polymerase ribozyme fitness (log ratio)” value is -3.82.

As to A52G G58U, the “polymerase ribozyme fitness (log ratio)” value is -0.0148.

On to G59C A138G, for which the “polymerase ribozyme fitness (log ratio)” value was -3.04.

On to A41C U53A U135A, for which the “polymerase ribozyme fitness (log ratio)” value is -1.07.

As for A115G U146A, the “polymerase ribozyme fitness (log ratio)” value is -1.38.

Regarding U7G A20C U56G U146G, the “polymerase ribozyme fitness (log ratio)” value was -3.82.

Consider A23U A52G C76U C79A C103A, for which the “polymerase ribozyme fitness (log ratio)” value was not above -4.2.

In the case of U13G C79A C103U, the “polymerase ribozyme fitness (log ratio)” value is not above -4.2.

Regarding C8U U15C A17U A40G G42C U61G C75U C93U C129U G133U, the “polymerase ribozyme fitness (log ratio)” value was not above -4.2.

For the variant C14U A21C G67U U77A C85G C96U U127G, the “polymerase ribozyme fitness (log ratio)” value was not above -4.2.

Regarding C85U C103G C108U A115U G143A, the “polymerase ribozyme fitness (log ratio)” value was not above -4.2.

For G83C A113C, the “polymerase ribozyme fitness (log ratio)” value was -3.35.

Consider G92U G133C, for which the “polymerase ribozyme fitness (log ratio)” value was -2.1.

As for C32U U55G, the “polymerase ribozyme fitness (log ratio)” value was -1.52.

Consider U55A A60C G62A G81A C85U G133C, for which the “polymerase ribozyme fitness (log ratio)” value was not above -4.2.

G84C G92U A150U: the “polymerase ribozyme fitness (log ratio)” value is -2.39.

As to G81A A106U, the “polymerase ribozyme fitness (log ratio)” value is -1.09.

Turning to G83A A115U, the “polymerase ribozyme fitness (log ratio)” value is -1.25.

Regarding A91U A147U, the “polymerase ribozyme fitness (log ratio)” value is -3.99.

As to C36U U55G C118G, the “polymerase ribozyme fitness (log ratio)” value is -1.72.

Consider U56G G71C C123G, for which the “polymerase ribozyme fitness (log ratio)” value is -3.58.

Take A24U U31A C63G C76A: the “polymerase ribozyme fitness (log ratio)” value is -3.16.

As for C10G C18G A21C G25A G65A C79A U104G, the “polymerase ribozyme fitness (log ratio)” value was not above -4.2.

Turning to C38U C57G C75U G86A U148A, the “polymerase ribozyme fitness (log ratio)” value was not above -4.2.

With A19G A41U C57U G84U U146A A147U U151A, the “polymerase ribozyme fitness (log ratio)” value was not above -4.2.

Regarding G50U C57G, the “polymerase ribozyme fitness (log ratio)” value turned out to be 0.0255.

Consider A41C A91G C118G, for which the “polymerase ribozyme fitness (log ratio)” value was -3.64.

Turning to C36U G92C, the “polymerase ribozyme fitness (log ratio)” value was -1.37.

In the case of C5U C38U C54U G94U A115U A119G G136U A147U, the “polymerase ribozyme fitness (log ratio)” value was -3.8.

On to C5G C38G G68C U135A G141A, for which the “polymerase ribozyme fitness (log ratio)” value is not above -4.2.

Take G58C A66C G67A A89C U111C C116A C129G U148A: the “polymerase ribozyme fitness (log ratio)” value is not above -4.2.

For the variant C57U C125A, the “polymerase ribozyme fitness (log ratio)” value was -0.844.

Regarding A20G A37U U111G, the “polymerase ribozyme fitness (log ratio)” value is not above -4.2.

For the variant A22C C125U, the “polymerase ribozyme fitness (log ratio)” value was -0.469.

Take A20U C85G: the “polymerase ribozyme fitness (log ratio)” value is -3.35.

Regarding G81C A119U G128U, the “polymerase ribozyme fitness (log ratio)” value is -2.99.

For the variant U61A A107C C114U G140U, the “polymerase ribozyme fitness (log ratio)” value was not above -4.2.

As to A41G U55G G59A U145A, the “polymerase ribozyme fitness (log ratio)” value is -0.554.

Turning to A49C A73G C93U U127A, the “polymerase ribozyme fitness (log ratio)” value was not above -4.2.

Turning to A37U C54A C96G, the “polymerase ribozyme fitness (log ratio)” value was -3.53.

For C85U C93U U134G, the “polymerase ribozyme fitness (log ratio)” value was -4.16.

With U6A U44A C57G G70A G80A C85U G126U C131G, the “polymerase ribozyme fitness (log ratio)” value was not above -4.2.

Consider A21C C57G, for which the “polymerase ribozyme fitness (log ratio)” value is -0.649.

As for C63U A89G C93A, the “polymerase ribozyme fitness (log ratio)” value was not above -4.2.

A21U C27G C93U A138C A147C: the “polymerase ribozyme fitness (log ratio)” value is not above -4.2.

G46A C85A C87U C99A: the “polymerase ribozyme fitness (log ratio)” value is not above -4.2.

Regarding C69A G70C, the “polymerase ribozyme fitness (log ratio)” value was -3.18.

Regarding C85A C125G, the “polymerase ribozyme fitness (log ratio)” value is -1.13.

As for C96A A97G, the “polymerase ribozyme fitness (log ratio)” value is -0.635.

Turning to U55G G80A C87U, the “polymerase ribozyme fitness (log ratio)” value was -0.574.

Take G59C A119U C149U: the “polymerase ribozyme fitness (log ratio)” value is -0.775.

Regarding U7A A22G U77C G124U C132A, the “polymerase ribozyme fitness (log ratio)” value was not above -4.2.

In the case of C8G A52G, the “polymerase ribozyme fitness (log ratio)” value is -3.17.

On to A41U G71A G83C G84U U145C A147U, for which the “polymerase ribozyme fitness (log ratio)” value was not above -4.2.

For the variant A40C A47C A60C G71U A91C C93U, the “polymerase ribozyme fitness (log ratio)” value was not above -4.2.

Turning to A23U G68A A73U C99U, the “polymerase ribozyme fitness (log ratio)” value was not above -4.2.

Turning to C57U G81C A106U, the “polymerase ribozyme fitness (log ratio)” value was -1.74.

Take C18G A21C A49C C93A: the “polymerase ribozyme fitness (log ratio)” value was not above -4.2.

G50C G58A: the “polymerase ribozyme fitness (log ratio)” value is -1.56.
